Tested on: MS2 coat protein
Test: apparent KD of MS2 coat protein; designed switch direction (-1 OFF switch, 1 ON switch): -1; higher = weaker reporter binding
How it was run: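 The reported apparent KD is a per-design median over clusters, from curve fits of normalised cluster fluorescence. Protein titrations used SNAP-549-labelled MS2 coat protein, doubled from 0.7 or 1.5 nM to 3 µM, in Tris-HCl pH 7.5 buffer with KCl, MgCl2, BSA, DTT, tRNA and Tween-20, with no input, 200 uM small-molecule ligand, or an oligonucleotide input. The RNA switches were transcribed on Illumina chips by stalled E. coli RNA polymerase.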

[1] = Eterna round: R95, input ligand: microRNA oligo, concentration not stated
[2] = Eterna round: R95, input ligand: FMN 200 uM
[3] = Eterna round: R95, input ligand: none
[4] = input ligand: microRNA oligo, concentration not stated

Sequence	apparent KD of MS2 coat protein (input ligand: FMN 200 uM) [nM]	apparent KD of MS2 coat protein (input ligand: none) [nM]	other results
GGGAAGGGAGGAUAUGAGGAAGAGAACAUGAGGAUCACCCAUGUGAGGCCUCAGGAUCGAUCAGAAGGCCCGAUCC [AK-MS2ROC-r4-exclusion5-15] (Eterna round: R97, puzzle: Exclusion 5)	297	142	
GGGCAAUUAGGAUAUACAUGAGGAUCACCCAUGUGGAAGCCCGGACAGGUAAUCCACUGUAGAAGGGAUUGCCA [Anareor] (puzzle: Exclusion 3)			apparent KD of MS2 coat protein [1]: 10.7 nM
GGGCCCGGUGUGAGGAUAUGCUCGGGUAAAUCUGGGUAGAAGGCACAUGAGGAUCACCCAUGUAAGCCGGGCCC [-34.4, -32.3 kcal, A 23%, 7bis-0] (Eterna round: R97, puzzle: Brourd's mod of Exclusion 4)	15.2	19.3	
GGGCCCGGUGUGAGGAUAUUUGAAGUGAAAGCUUCGGAGAAGGCACAUGAGGAUCACCCAUGUAAGCCGGGCCC [-35.9, -33.8 kcal, A 26%, 3bis-0] (Eterna round: R97, puzzle: Brourd's mod of Exclusion 4)	16.1	13.4	
GGGCGUGAAGGAUAUACAUGAGGAUCACCCAUGUGGGAGGAGAGUGGUGAGGAGGCUGGUAGAAGGUCAGGAGG [JR_Exclusion3_Sub008] (puzzle: Exclusion 3)			apparent KD of MS2 coat protein [1]: 27.7 nM
GGGCUGUCAGGAUAUGGGCCCGGGCCCGAAAGGGCCCGGGCCCAGAAGGGACAUGAGGAUCACCCAUGUGGCCC [-51.3, -50.3 kcal, A 22%] (Eterna round: R97, puzzle: Exclusion 4)	43	37.7	
GGGCUUCGAGUCAGGAUAUAAGGCCGCUGGCCCAUUUAGAAGGGACUUGAGGAUCACCCAAGUCACCACGGACG [Geceisbi] (Eterna round: R97, puzzle: Brourd's mod of Exclusion 4)	19.3	16.8	
GGGUGACAUGAGGAUCACCCAUGUCAGGAUAUGGGCCCGGGCCCGAAAGGGCCCGGGCCCAGAAGGGACUGCCC [-52, -51 kcal, 22%A] (Eterna round: R97, puzzle: Exclusion 1)	151	46.5	
GGGUGCAGGCUGAGGUCCUACAUGAGGAUCACCCAUGUGGUCCGGUGACGUGAGUCACCGGACUUAGCUCGUCUUGU [salish99_S_TOV1_R5_009] (Eterna round: R97, puzzle: Sensor, turn-off variant 1)	82	97.8	
GGGUUACAUGAGGAUCACCCAUGUGAGGAUAUGAUACUAUGUACUUCGGUACAUAGUAUCAGAAGGCACAUAAA [Ex1-3: 19] (puzzle: Exclusion 1)			apparent KD of MS2 coat protein [1]: 121 nM
GGUACUAACACGAAAGUGUUAGUACUAUAGGUUUGUGUUACAUGAGGAUCACCCAUGUCCUCAUAAGCUCGUCUUGU [JL-sv3-2.21 mat747 mod] (puzzle: Sensor v3, turn-off variant 2)			apparent KD of MS2 coat protein [2]: 455 nM; apparent KD of MS2 coat protein [1]: 170 nM; apparent KD of MS2 coat protein [3]: 403 nM
GGUACUAACACGGAAGUGUUAGUACUAUAAGCUUGUGUUACAUGAGGAUCACCCAUGUCCUCAUAAGCUCGUCUUAU [Mat - Sensor v3 - Turn-off var 2 - D75] (puzzle: Sensor v3, turn-off variant 2)			apparent KD of MS2 coat protein [2]: 93.5 nM; apparent KD of MS2 coat protein [1]: 38.1 nM; apparent KD of MS2 coat protein [3]: 90.7 nM
GGUACUCAAAGAGUACCAAUACGAACAUGAGGAUCACCCAUGUAGGAUAUGCUACUCAAAGAGUAGCAGAAGGACAUGUACCUU [Far Half Aptamer v6] (Eterna round: R96, puzzle: Exclusion NG 3)	227	29.5	apparent KD of MS2 coat protein [4]: 19.7 nM
GGUACUCAAAGAGUACCAAUACGAACAUGAGGAUCACCCAUGUAGGAUAUGCUACUCAAAGAGUAGCAGAAGGAUAUGAUGGAU [Far Half Aptamer v15] (Eterna round: R96, puzzle: Exclusion NG 3)	60.2	34.2	apparent KD of MS2 coat protein [4]: 19.2 nM
GGUACUCAAAGAGUACCAAUACGAACAUGAGGAUCACCCAUGUAGGAUAUGCUACUCAAAGAGUAGCAGAAGGAUAUGAUGUAU [Far Half Aptamer v17] (Eterna round: R96, puzzle: Exclusion NG 3)			apparent KD of MS2 coat protein [4]: 27.6 nM
GGUAGAGUGGUAGGAUAUCCGUCUGUUUCAGUCGGAGAAGGACCACAGUCACUGGGUCCAAAUAUGGGUGACCAUGUAUCUACC [pwkr exNG1 F6.3] (Eterna round: R96, puzzle: Exclusion NG 1)	622	392	apparent KD of MS2 coat protein [4]: 358 nM
GGUAGCUGAGGAUAUGCAGACGACCCUCAGUGCUGGCUUGCACAUGAGGAUCACCCAUGUAGAAGGCAGAAGCU [Eternabot (L2) Solution 5] (Eterna round: R97, puzzle: Exclusion 2)	56	57.5	

From the supplement of paper PMC9170038
